The values that follow come from patent US20220195407, “OPTIMIZATION OF ENGINEERED MEGANUCLEASES FOR RECOGNITION SEQUENCES” (Precision BioSciences, Inc., published 2022).

Positions count from the first letter of the chain named.

Holding throughout (assay): cell_activity; CHO iGFFP reporter
One data set concerns the target T1, LOX 3-4 M.15 (artificial (I-CreI derived)).
T1 chain: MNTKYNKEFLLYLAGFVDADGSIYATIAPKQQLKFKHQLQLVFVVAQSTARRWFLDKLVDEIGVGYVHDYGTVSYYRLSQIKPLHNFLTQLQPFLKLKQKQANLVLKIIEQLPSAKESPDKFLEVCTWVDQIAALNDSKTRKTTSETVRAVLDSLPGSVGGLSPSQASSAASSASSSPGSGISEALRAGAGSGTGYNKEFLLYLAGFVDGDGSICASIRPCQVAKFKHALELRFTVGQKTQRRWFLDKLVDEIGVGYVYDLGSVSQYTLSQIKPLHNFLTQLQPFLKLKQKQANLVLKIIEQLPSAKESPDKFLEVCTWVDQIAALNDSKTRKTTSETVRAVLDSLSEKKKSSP
From the text:
(§1) A CHO cell reporter system (see WO/2012/167192, FIG. 3) was used to determine whether the engineered meganucleases generated in these studies could recognize and cleave the modified LOX 3-4 recognition sequences in Table 87. To perform the assay, a pair of CHO cell reporter lines were produced, which carried a non-functional Green Fluorescent Protein (GFP) gene expression cassette integrated into the genome of the cell. The GFP gene in each cell line was interrupted by a pair of recognition sequences such that intracellular cleavage of either recognition sequence by a meganuclease would stimulate a homologous recombination event resulting in a functional GFP gene. In both cell lines, one of the recognition sequences was derived from the LOX 3-4 recognition sequence (i.e., those sequences disclosed in Table 87), and the second recognition sequence was specifically recognized by a control meganuclease called “CHO 23/24.” CHO reporter cells comprising a recognition sequence derived from the LOX 3-4 recognition sequence and the CHO 23/24 recognition sequence are referred to herein as “test cells.”
(§2) Novel engineered meganucleases derived from the LOX 3-4x.109 meganuclease were prepared by making amino acid substitutions at one or more positions in the first subunit. These engineered meganucleases were then evaluated for cleavage of the LOX 3-4 recognition sequence modified to have a GTAA center sequence (SEQ ID NO: 358) in the CHO reporter assay according to Example 1. Novel meganucleases which were modified to comprise the residues recited in the tables below were capable of cleaving the LOX 3-4 recognition sequence having a GTAA four base pair center sequence.

The target in the next data set is T2, LOX 3-4 M.23 (artificial (I-CreI derived)).
T2 chain: T1 chain with A19S, S48A, A50R, G71R, T72N, S74A, K139R
Excerpt: as §1, §2

For another data set, the target named is T3, LOX 3-4 M.6 (artificial (I-CreI derived)).
T3 chain: T1 chain with S48R, A50R, G71N, T72A, K139R
Excerpt: as §1, §2

A further data set addresses T4, LOX 3-4m.1601 (artificial (I-CreI derived)).
T4 chain: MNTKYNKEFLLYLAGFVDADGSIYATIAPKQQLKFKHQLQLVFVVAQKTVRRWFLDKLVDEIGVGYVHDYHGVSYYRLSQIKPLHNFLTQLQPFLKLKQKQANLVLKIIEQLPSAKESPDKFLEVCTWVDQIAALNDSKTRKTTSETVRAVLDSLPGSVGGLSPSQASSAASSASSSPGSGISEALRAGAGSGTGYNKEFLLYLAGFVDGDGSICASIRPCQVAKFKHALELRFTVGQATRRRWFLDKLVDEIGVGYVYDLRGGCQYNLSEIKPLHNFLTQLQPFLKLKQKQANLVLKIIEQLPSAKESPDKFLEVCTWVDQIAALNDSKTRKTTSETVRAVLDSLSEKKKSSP
Excerpt: as §1
as §2, with “first subunit and one or more positions in the second” for “first”, “GCAT” for “GTAA”, “292)” for “358)”, “1. The substitutions in each subunit are provided in Tables 151 and 152, respectively.” for “1.”, “continued to cleave” for “were capable of cleaving”

The target in another data set is T5, LOX 3-4m.1687 (artificial (I-CreI derived)).
T5 chain: T4 chain with A19G, V50R, H71R, Q80E, G210A, R241S, R262H, G264A, E271Q, K330H
Excerpt: as §1
as §2, with “first subunit and one or more positions in the second” for “first”, “GCAT” for “GTAA”, “292)” for “358)”, “1. The substitutions in each subunit are provided in Tables 151 and 152, respectively.” for “1.”, “continued to cleave” for “were capable of cleaving”

A further data set addresses T6, LOX 3-4m.1679 (artificial (I-CreI derived)).
T6 chain: T4 chain with V50R, H71R, G72N, V73T, A239I, R241K, R262G, G263N, G264S
Excerpt: as §1
as §2, with “first subunit and one or more positions in the second” for “first”, “GCAT” for “GTAA”, “292)” for “358)”, “1. The substitutions in each subunit are provided in Tables 151 and 152, respectively.” for “1.”, “continued to cleave” for “were capable of cleaving”

A further data set deals with T7, LOX 3-4m.1689 (artificial (I-CreI derived)).
T7 chain: T4 chain with V50R, H71A, G72A, V73T, R241H, R262G, G263T, G264S, C265A, E271Q
Excerpt: as §1
as §2, with “first subunit and one or more positions in the second” for “first”, “GCAT” for “GTAA”, “292)” for “358)”, “1. The substitutions in each subunit are provided in Tables 151 and 152, respectively.” for “1.”, “continued to cleave” for “were capable of cleaving”

Another data set addresses T8, LOX 3-4m.1781 (artificial (I-CreI derived)).
T8 chain: T4 chain with V50R, H71N, G72R, A239S, R262G, G263R, G264I, C265S, K330R
Excerpt: as §1
(§3) Novel engineered meganucleases derived from the LOX 3-4x.109 meganuclease were prepared by making amino acid substitutions at one or more positions in the first subunit and one or more positions in the second subunit. These engineered meganucleases were then evaluated for cleavage of the LOX 3-4 recognition sequence modified to have a GCGA center sequence (SEQ ID NO: 314) in the CHO reporter assay according to Example 1.

The target in another data set is T9, LOX 3-4m.1745 (artificial (I-CreI derived)).
T9 chain: T4 chain with V50R, H71S, V73T, A239T, R262G, G263R, G264I, C265S, E271Q, K330R
Excerpt: as §1, §3

The target of a further data set is T10, LOX 3-4m.1780 (artificial (I-CreI derived)).
T10 chain: T4 chain with V50R, H71S, Q80E, A239Q, R262G, G263R, G264I, C265S, E271Q, K330R
Excerpt: as §1, §3

The target in a further data set is T11, LOX 3-4m.1782 (artificial (I-CreI derived)).
T11 chain: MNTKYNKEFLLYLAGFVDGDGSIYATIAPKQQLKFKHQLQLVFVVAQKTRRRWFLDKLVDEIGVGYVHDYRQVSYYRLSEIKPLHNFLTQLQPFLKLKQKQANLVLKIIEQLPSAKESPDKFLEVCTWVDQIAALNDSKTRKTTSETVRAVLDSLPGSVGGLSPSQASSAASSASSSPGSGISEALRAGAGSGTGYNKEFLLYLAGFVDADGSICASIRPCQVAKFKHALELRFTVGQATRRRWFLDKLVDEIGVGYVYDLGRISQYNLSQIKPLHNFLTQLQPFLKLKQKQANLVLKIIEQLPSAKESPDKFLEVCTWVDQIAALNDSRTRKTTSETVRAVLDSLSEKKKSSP
Excerpt: as §1, §3

B1: LOX 3-4 GTAA (dsDNA)
DNA 1: GTATAGCATGTAATATACGAAG
DNA 2: CTTCGTATATTACATGCTATAC
With B1, the values for the activity with LOX 3-4 M.15, in the data set with LOX 3-4 M.23 and with LOX 3-4 M.6 were 11.5 % GFP, 13.2 % GFP and 11.4 % GFP, respectively.

B2: LOX 3-4 GCAT (dsDNA)
DNA 1: GTATAGCATGCATTATACGAAG
DNA 2: CTTCGTATAATGCATGCTATAC
As to B2, the activity is 10.9 % GFP with LOX 3-4m.1601, 10.9 % GFP in the data set with LOX 3-4m.1687, 10.8 % GFP with LOX 3-4m.1679 and 11.2 % GFP with LOX 3-4m.1689.

B3: LOX 3-4 GCGA (dsDNA)
DNA 1: GTATAGCATGCGATATACGAAG
DNA 2: CTTCGTATATCGCATGCTATAC
As to B3, the activity is 6.58 % GFP in the data set with LOX 3-4m.1781, 5.13 % GFP with LOX 3-4m.1745, 6.53 % GFP with LOX 3-4m.1780 and 5.45 % GFP in the data set with LOX 3-4m.1782.
